Test results taken from paper PMC13090976 (Cell Stress & Chaperones, 2026).

B1: human CHIP-TPR (residues 21-154) [human] / biotin-… [modified: biotin, printed before the first residue (biotin-…); biotin, printed before the first residue (biotin-…)] [human] (parent)
chain 1: EKSPSAQELKEQGNRLFVGRKYPEAAACYGRAITRNPLVAVYYTNRALCYLKMQQHEQALADCRRALELDGQSVKAHFFLGQCQLEMESYDEAIANLQRAYSLAKEQRLNFGDDIPSALRIAKKKRWNSIEERR
chain 2: GSGSGPTIEEVD

Variants of: B1
Assay: biolayer interferometry
Details: with biotin-… [modified: biotin, read off a plot

Row | Variant | koff | kon
1 | chain 1 EKSPSAQELKEQGNRLFVGRKYPEAAACYGRAITRNPLVAVYYTNRALCYLKMQQHEQALADCRRALELDGQSVKAHFFLGQCQLEMESYDEAIANLQRAYSLAKEQRLNFNDDIPSALRIAKKKRWNSIEERR | 0.0031 s⁻¹ | 5800 M⁻¹ s⁻¹
